The target of the test is T1, Ac-(NPNA)2-NH2 peptide (Plasmodium falciparum (synthetic repeat …)).
T1 construct: two NPNA repeats of the central repeat region of P. falciparum circumsporozoite protein (PfCSP); also called (NPNA)2 peptide; source: synthetic peptide, bought: InnoPep Inc. (>98% purity)
T1 chain: Ac-NPNANPNA-NH2
Put plainly: ITC; MicroCal Auto-iTC200; peptide 134 uM in the syringe, Fab in the cell (9.2 uM Fab311, 9.6 uM Fab311R); Dulbecco's PBS; 25 °C; triplicate experiments, 16 injections. The settings on record: both partners purified. A general note: Isothermal titration calorimetry measures the heat released or taken up as one component is titrated into another.

B1: Fab311 (Fab of monoclonal antibody mAb311) (Fab, V domains shown)
VH: QVQLVESGGGVVPPGRSLRLSCATSGFTFSNYGMHWVRQAPGKGLEWVAIIWYDGSRNFYAASVEGRFTISRDNSKNTLYLQMNSLRVEDTAVYYCARAAYYDTSGYGDYWGQGTLVTVSS
VL: QSVLTQPPSVSGAPGQTVTISCTGGSSNIGAGYDVHWYQQLPGTAPKLLIYGNINRPSGVPDRFSGSKSGTSASLAITGLQAEDEADYYCQSYDRRLSGSWVFGGGTKLTVL
notes: heavy chain of Fab311; cryo-EM models 6MHG and 6MB3 hold the variable domains only; germline IGHV3-33*01; light chain of Fab311; germline IGLV1-40*01; human antibody isolated from an RTS,S/AS01B vaccinee; source: FreeStyle 293-F cells, purified as previously described (15)
Regarding B1, the Kd was determined as 160 ± 7 nM and the “stoichiometry N” value was 1.19 ± 0.04.

B2: Fab311R (Fab311 inter-Fab contact residue reverted) (Fab, V domains shown)
VH: QVQLVESGGGVVPPGRSLRLSCATSGFTFSSYGMHWVRQAPGKGLEWVAIIWYDGSNKFYAASVKGRFTISRDNSKNTLYLQMNSLRVEDTAVYYCARAAYYDTSGYGDYWGQGTLVTVSS
VL: QSVLTQPPSVSGAPGQTVTISCTGGSSNIGAGYDVHWYQQLPGTAPKLLIYGNINRPSGVPDRFSGSKSGTSASLAITGLQAEDEADYYCQSYDSSLSGSWVFGGGTKLTVL
notes: the PDB entries hold the parent Fab311; also called germline-reverted Fab311; source: FreeStyle 293-F cells
Regarding B2, the Kd is 135 ± 56 nM and the “stoichiometry N” value was found to be 1.21 ± 0.03.

In general, Kd refers to the free concentration of one partner at which half of the binding sites on the other are occupied at equilibrium, for simple one-to-one binding. A lower Kd goes with tighter binding. Broadly, the stoichiometry N is a count of units in the complex or per binding partner.
